Measurements as given in patent US20240218054A1 (MABLOC, published 2024).
Substitutions are numbered along the chain they refer to.

B1: ADI-49189 (antibody, V domains shown)
VH: EVQLVESGGGLVKPGGSLRLSCAASGFTFSDYYMSWIRQAPGKGLECIACISSSGSMIYYADSVKGRFTISRDNAKNSLYLQLNSLRVEDTAVYYCAREGTRGRMDWGQGTLVTVSS
VL: QSVLTQPASVSGSPGQSITISCTGTSSDIGGYNYVSWYQQHPGKVPKLVIYDVSNRPSGVSNRFSGSKSGNTASLTISGLQAEDEADYYCSSYTSGTTLGVFGTGTKLTVL
notes: full-length IgG; also called Antibody Number 30
B2: ADI-50531 (antibody, V domains shown)
VH: EVTLKESGPTLVKPTQTLTLTCTFSGFSLSTSGVGVGWIRQPPGKALEWLALIYWDDDKRYSPSLKSRLTITKDTSKNQVVLTMTNMDPVDTATYYCAHSPRRITMVRGVIITWGDGMDVWGQGTTVTVSS
VL: B1 VL with S2P, I29V, V45A, V49M, G96S, T97S, G100A, T104G
notes: full-length IgG; also called Antibody Number 42
B3: ADI-42809 (antibody, V domains shown)
VH: QVQLVESGPGLVKPSGTLSLTCAVSGDSISSTNWWSWVRQPPGKGLEYIGEIFHSGSTNYNPFLKSRVTISVDKSKNHFSLKLSSVTAADTAVYYCARGPLKSYWYFDLWGRGTLVTVSS
VL: QSVLTQPPSVSAAPGQKVTISCSGSSSNIGNNYVSWYQQLPGTAPKLLIYDNNKRPSGIPDRFSGSKSGTSATLGITGLQTGDEADYYCGTWDTSLSAGRVFGGGTKLTVL
notes: full-length IgG; also called Antibody Number 34
B4: ADI-46586 (antibody, V domains shown)
VH: EVQLVESGGGLVKPGGSLRLSCAASGFTFTDYYMSWIRQAPGKGLEWVSYITSSGNTKYYADSVKGRFTISRDNAKNSLFLQMNSLRAEDTAVYFCARDGSMVNAIDYWGQGTLVTVSS
VL: B3 VL with S2P, N32D, A85G, T94S, G99A, R100W, L108V
notes: full-length IgG; also called Antibody Number 43
B5: ADI-42818 (antibody, V domains shown)
VH: EVQLVESGPGLVKPSGTLSLTCAVSGGSITGSNWWSWVRQPPGKGLEWIGEIYHTGSTSYNPSLKSRVTISVDNSKNHFSLRLTSVTAADTAVYYCARVRWSGSTSWDLDYWGQGTLVTVSS
VL: B3 VL with L4V, K67T, D86V, L96P, R100G, L108V
notes: full-length IgG; also called Antibody Number 41
B6: ADI-48955 (antibody, V domains shown)
VH: B4 VH with E1Q, E6Q, K13N, T52S, K58R, F80S, A88P, V93I, F95Y, M102L
VL: B3 VL with I29F, N32D, N53D, G99A, R100W, L108V
notes: full-length IgG; also called Antibody Number 40
B7: ADI-42830 (antibody, V domains shown)
VH: EVQLLESGPGLVRPSGTLSLTCAVSGASISSNHWWTWVRQPPGKGLEWIGEIYHSGSPTYNPSLKSRVTISVDKSKNQFSLKLNSVTAADTAVYYCASTLWGGPLSVASDYWGQGTLVTVSS
VL: B3 VL with N32Y, L40V, Q80H, D86E, T94S, L96P
notes: full-length IgG; also called Antibody Number 37
B8: ADI-42151 (antibody, V domains shown)
VH: B3 VH with V5Q, D27G, T32S, Y48W, F53Y, N59T, F63S, H78Q, S103T
VL: B3 VL with L4V
notes: full-length IgG; also called Antibody Number 51
B9: ADI-42831 (antibody, V domains shown)
VH: EVQLVESGGGLVQPGGSLRLSCAASGFTFINYAMTWVRQAPGKGLEWVSAISGNGDGTYYADSVKGRFTLSRDNAKNTIYLHMSALRDEDTALYYCAKDQGVTTDWPSDYWGQGTLVTVSS
VL: DIRLTQSPSTLSASVGDRVTVTCRASQNINTYLAWYQQIPGKAPRLLIYRASTLESGVPSRFSGSGSGTEFTLTINSLQPDDYATYYCQHYETYSVRFGQGTKVEIK
notes: full-length IgG; also called Antibody Number 46
B10: ADI-50026 (antibody, V domains shown)
VH: EVQLLESGGGVVQPGRSLRLSCAASGFTFTTYAMHWVRQAPGKGLEWVAAVSYDGNNKYYADSVKGRFTISRDNSRNTLYLQMNSLRAEDTAVYFCARNTYYDRSGLIAYWGQGALVTVSS
VL: DIQVTQSPSSLSASVGDRVTITCQASQDISNYLNWYQHKPGRAPKLLIYDASNLERGVPSRFSGSGSGTDFTFTISSLQPEDIATYYCQQYDNLSRLTFGGGTKLEIK
notes: full-length IgG; also called Antibody Number 33
B11: ADI-49186 (antibody, V domains shown)
VH: QVQLVESGGGVVQPGRSLRLSCAASGFTFSNSGMHWVRQAPGQGLEWVALISYTGETKYYSDSLKARFTISRDNSKNTLYLQMSSLSNEDTAVYYCARDYYASGDGYFDYWGQGTLVTVSS
VL: DIVLTQSPDSLAVSLGERATINCKSSQSVLFGSNQKSCLAWYQQKPGQSPKLLIHWASTRESGVPDRFSGSGSGTDFTLTISSLQAEDVAVYYCQQYYSTPRTFGQGTKVEIK
notes: full-length IgG; also called Antibody Number 38
B12: ADI-50219 (antibody, V domains shown)
VH: QVQLQESGPGLVKPSETLSLTCTVSGDSISVSYWSWIRQFPGKGLEWIGYIYNSGNANYNPSLESRVTISIDTSKNRFSLRLSSVTAADTAVYYCAGHREDPYGAYGASWGQGTLVTVSS
VL: EIVLTQSPATLSSSPGERATLSCRASQSVNSYLVWYQQKPGQAPRLLIYDASNRATGIPARFTGSGSGTDFTLTISSLEPEDFAVYYCQQRTNWPFTFGQGTKVDIK
notes: full-length IgG; also called Antibody Number 27
B13: ADI-48897 (antibody, V domains shown)
VH: EVQLLESGPGLVKPSETLSLTCTVSGGSLSSDSHFWGWIRQPPGKGLEWIGYIYYSGNANYNPSLQSRVTISLDKSKNQFSLRLTSVTAADTAVYYCASRKEVRGTEDYFDYWGQGTLVTVSS
VL: B12 VL with S13L, S31R, V34A, T63S, Q89H, F96W, D105E
notes: full-length IgG; also called Antibody Number 28
B14: ADI-42201 (antibody, V domains shown)
VH: EVQLVESGGGVVQPGRSLRLSCVASGFTLRSYGMHWVRQVPGKGLEWVAVSWYDGSNKHYADSVKGRFSISRDNSKNTLYLQMNSLRAEDTAVYYCARAQDGQQLVNYYGMDVWGQGTTVTVSS
VL: DIQMTQSPSSLSASVGDRVTITCRASQSISSYLNWYQQKPGEAPNLLIFAASILQSGVPSRFSGSGSGTDFTLTISSLQPEDFATYYCQQSYSTPYTFGQGTKVEIK
notes: full-length IgG; also called Antibody Number 25
B15: ADI-49183 (antibody, V domains shown)
VH: QVQLVESGGGLVKPGGSLRLSCVASGFTFNNYYMRWMRQAPGKGLEWVSQISSSGSIKDYADSVKGRFTVSRDNAKNSLYLQLNSLRADDTAVYFCARELSSRIDYWGQGTLVTVSS
VL: QSALTQPASVSGSPGQSITISCTGTGSDVGGYNFVSWYQQHPGKAPKLMLYDVNNRPSGVSNRFSGSKSGNTASLTISGLQAEDEADYYCSSYPGTSALVIFGGGTRLTVL
notes: full-length IgG; also called Antibody Number 24
B16: ADI-49138 (antibody, V domains shown)
VH: QVQLVESGGGVVQPGRSLRLSCAASGFTFSNSGMHWVRQAPGKGLEWVSVIWYDESNKYYADSVKGRFTISRDNSKNTVYLQMNTLRAEDTAVYYCARDAYASGDGGIDYWGQGALVTVSS
VL: QPVLTQSASVSGSPGQSITISCTGTSSDVGGYKYVSWYQQHPGKAPKLMIYEVSNRPSGVSIRFSGSKSGNTASLTISGLQAADEADYYCSSYRSSGTPYVFGTGTKVTVL
notes: full-length IgG; also called Antibody Number 44
B17: ADI-46596 (antibody, V domains shown)
VH: QVQLQESGPGLVKPSGTLSLTCAVSGGSISSNNWWSWVRQPPGKGLEWIGDTYHSGSPSYNPSLKSRVTISVDKSKNEFSLKLSSVTAADTAVYFCARYCSGATCYGSNGMDVWGQGTTVTVSS
VL: QSVLTQPPSMSAAPGQKVTISCSGSSSNIGNNYVSWYRQLPGTAPKLLIYDNDKRPSGIPDRFSGSKSGTTATLGITGLQTGDEAVYYCGTWDFRLSALFGGGTKLTVL
notes: full-length IgG; also called Antibody Number 35
B18: ADI-46591 (antibody, V domains shown)
VH: QVQLQQWGPELVKPSGTLSLTCTVSGGSISSISWWSWVRQSPGKGLEWIGEINHSGSTVYNPSLKSRVTISVDKSKKQFSLKLRSVTAADTAVYYCVRYCSSTSCYGLNGMDVWGQGTTVTVSS
VL: B17 VL with M10V, N31S, Y33F, R38Q, D53N, T71S, G75A, V86D, F94T, L106V
notes: full-length IgG; also called Antibody Number 39
B19: ADI-49188 (antibody, V domains shown)
VH: EVQLLESGPGLVRPSGTLSLTCAVSGGSISTTDWWSWVRQPPGKGLEWIGEINQSGSTSYSPSFKSRVSISVDKSKRQFSLKLTSVTAADTAVYYCARDSWSGPTRNWFDPWGRGTLVTVSS
VL: QSVVTQPPSVSAAPGQKVTISCSGRSSNIGNSDVSWYQQFPGRAPKLLIYDNDERPSGIPDRFSGSKSGTSATLDITGLQTGDEADYYCGTWDSSLGGVIFGGGTKVTVL
notes: full-length IgG; also called Antibody Number 31
B20: ADI-42188 (antibody, V domains shown)
VH: EVQLLESGPGLVKPSGTLSLTCAVSGGSISSGNWWSWVRQPPGKGLEWIGEIYHSGSANYNPSLKSRVTISVDKSKNQFSLKLTSVTAADTAVYYCARVVWEYSNAWCVDFWGQGTTVTVSS
VL: QSVLTQPPSVSAAPGQKVTISCSGSSSNIGNNYVSWYQQLPGTAPKLLIYDNNKRPSGIPDRFSGSKSGTSATLGITGLQTGDEADYYCETWDSSLGVVVFGGGTKLTVL
notes: full-length IgG; also called Antibody Number 32
B21: ADI-42144 (antibody, V domains shown)
VH: QVQLVESGGGVVQPGRSLRLSCAASGFTFSSYTMHWVRQAPGKGLEWVAVISYDGSNKYYADSVKGRFTISRDNSKNTLYLQMNSLRAEDTAVYYCARGGDYGDYESNNPAEYFQHWGQGTLVTVSS
VL: QSVLTQPPSVSGAPGQRVTISCTGSSSNIGAGYDVHWYQQLPGTAPKLLIYGNSNRPSGVPDRFSGSKSGTSASLAITGLQAEDEADYYCQSYDSSLSGHVVFGGGTKLTVL
notes: full-length IgG; also called Antibody Number 26
B22: ADI-50205 (antibody, V domains shown)
VH: QVQLQESGGGVVQPGRSLRLSCAASGFTFSNFGMHWVRQAPGKGLEWVAIISYDRSNKDYADSVKGRFTISRDNSKNTLYLQMNSLRAEDTAVYYCAKDQCGGDCTADYWGQGTLVTVSS
VL: QSVLIQPASVSGSPGQSITISCTGTSSDVGGDKYVSWYQQHPGKAPKLVIYEVSNRPSGVSNRFSGSKSGNTASLTISGLQAEDEADYYCSSYTSSGTPVVCGGGTKVTVL
notes: full-length IgG; also called Antibody Number 36
B23: ADI-42194 (antibody, V domains shown)
VH: EVQLQESGPGLVKPSETLSLTCTVSGGSVSSGSYYWSWIRQPPGKGLEWIGYIYDSGNTNYNPSLKSRVTISVDTSKRQFSLRLTSVTAADTAVYYCAKVEEDGYTNVVRDYWGQGTLVTVSS
VL: EIVMTQSPATLSLSPGERATLSCRASQSVSNYLAWYQQKPGQAPRLLISDASSRATGIPARFRGSGSGTDFTLTISSLEPEDFAVYYCLQRTNWPFTFGPGTKVEIK
notes: full-length IgG; also called Antibody Number 29

target: T1, recombinant YFV E protein (soluble E, sE; YFV Asibi strain) (Yellow fever virus, Asibi strain, UniProt Q6DV88 286-678); assay: BLI monovalent (IgG on tip)
T1 construct: also called YFV E antigen; YFV E monomer
T1 sequence (Q6DV88 286-678): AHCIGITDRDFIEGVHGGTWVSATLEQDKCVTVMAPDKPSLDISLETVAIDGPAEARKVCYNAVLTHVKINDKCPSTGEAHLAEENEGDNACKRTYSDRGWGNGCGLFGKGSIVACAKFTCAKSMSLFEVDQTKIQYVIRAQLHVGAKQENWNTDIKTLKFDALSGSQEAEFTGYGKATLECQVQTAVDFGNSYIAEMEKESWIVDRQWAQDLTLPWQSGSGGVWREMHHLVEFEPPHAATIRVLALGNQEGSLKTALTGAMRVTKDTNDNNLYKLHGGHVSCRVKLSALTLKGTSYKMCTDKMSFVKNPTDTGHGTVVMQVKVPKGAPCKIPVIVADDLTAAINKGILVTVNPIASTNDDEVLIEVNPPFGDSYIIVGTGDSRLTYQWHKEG

Row | Binder | Kd [nM]
1 | B1 | 12.7
2 | B2 | > 100
3 | B3 | 3.78
4 | B4 | 2.16
5 | B5 | 2.41
6 | B6 | 2.05
7 | B7 | 3.48
8 | B8 | 297
9 | B9 | 19.6
10 | B10 | > 100
11 | B11 | 12.3
12 | B12 | 0.859
13 | B13 | 3.22
14 | B14 | 113
15 | B15 | 2.21
16 | B16 | 17.5
17 | B17 | 5.11
18 | B18 | 9.6
19 | B19 | 9.54
20 | B20 | 37.1
21 | B21 | 10.9
22 | B22 | 18.8
23 | B23 | 5.44
